The chains are these.
B1: unnamed (protein)
chain 1: EVQLLESGGGLVQPGGSLRLSCAASGFTFSQYGMDWVRQAPGKGLEWVSGIGPSGGSTVYADSVKGRFTISRDNSKNTLYLQMNSLRAEDTAVYYCARDGSAYYYAFDVWGQGTTVTVSS
chain 2: DIQMTQSPSSLSASVGDRVTITCQASQDISNYLNWYQQKPGKAPKLLIYDASNLETGVPSRFSGSGSGTDFTFTISSLQPEDIATYYCQQADSFPVTFGGGTKVEIK
B2: unnamed (protein)
chain 1: EVQLLESGGGLVQPGGSLRLSCAASGFTFSQYGMDWVRQAPGKGLEWVSGIGPSGGSTVYADSVKGRFTISRDNSKNTLYLQMNSLRAEDTAVYYCARDGPAYYYAFDYWGQGTTVTVSS
chain 2: DIQMTQSPSSLSASVGDRVTITCQASQDISNYLNWYQQKPGKAPKLLIYDASNLETGVPSRFSGSGSGTDFTFTISSLQPEDIATYYCQQADSFPVTFGGGTKVEIK
B3: unnamed (protein)
chain 1: EVQLLESGGGLVQPGGSLRLSCAASGFTFSQYGMDWVRQAPGKGLEWVSGIGPSGGSTVYADSVKGRFTISRDNSKNTLYLQMNSLRAEDTAVYYCTRDGRSYYYAFDVWGQGTTVTVSS
chain 2: DIQMTQSPSSLSASVGDRVTITCQASQDISNYLNWYQQKPGKAPKLLIYDASNLETGVPSRFSGSGSGTDFTFTISSLQPEDIATYYCQQADSFPVTFGGGTKVEIK
B4: unnamed (protein)
chain 1: EVQLLESGGGLVQPGGSLRLSCAASGFTFSQYGMDWVRQAPGKGLEWVSGIGPSGGSTVYADSVKGRFTISRDNSKNTLYLQMNSLRAEDTAVYYCTRDGPWYYYAFDVWGQGTTVTVSS
chain 2: DIQMTQSPSSLSASVGDRVTITCQASQDISNYLNWYQQKPGKAPKLLIYDASNLETGVPSRFSGSGSGTDFTFTISSLQPEDIATYYCQQADSFPVTFGGGTKVEIK
B5: unnamed (protein)
chain 1: EVQLLESGGGLVQPGGSLRLSCAASGFTFSQYGMDWVRQAPGKGLEWVSGIGPSGGSTVYADSVKGRFTISRDNSKNTLYLQMNSLRAEDTAVYYCARDGPAYYYAFDVWGQGTTVTVSS
chain 2: DIQMTQSPSSLSASVGDRVTITCQASQDISNYLNWYQQKPGKAPKLLIYDASNLETGVPSRFSGSGSGTDFTFTISSLQPEDIATYYCQQADSFPVTFGGGTKVEIK
B6: unnamed (protein)
chain 1: EVQLLESGGGLVQPGGSLRLSCAASGFTFSQYGMDWVRQAPGKGLEWVSGIGPSGGSTVYADSVKGRFTISRDNSKNTLYLQMNSLRAEDTAVYYCARDGPAYYYGFDVWGQGTTVTVSS
chain 2: DIQMTQSPSSLSASVGDRVTITCQASQDISNYLNWYQQKPGKAPKLLIYDASNLETGVPSRFSGSGSGTDFTFTISSLQPEDIATYYCQQADSFPVTFGGGTKVEIK
B7: unnamed (protein)
chain 1: EVQLLESGGGLVQPGGSLRLSCAASGFTFSQYGMDWVRQAPGKGLEWVSGIGPSGGSTVYADSVKGRFTISRDNSKNTLYLQMNSLRAEDTAVYYCTRGGPSWYYAFDVWGQGTTVTVSS
chain 2: DIQMTQSPSSLSASVGDRVTITCQASQDISNYLNWYQQKPGKAPKLLIYDASNLETGVPSRFSGSGSGTDFTFTISSLQPEDIATYYCQQADSFPVTFGGGTKVEIK
B8: unnamed (protein)
chain 1: EVQLLESGGGLVQPGGSLRLSCAASGFTFSQYGMDWVRQAPGKGLEWVSGIGPSGGSTVYADSVKGRFTISRDNSKNTLYLQMNSLRAEDTAVYYCTRDGPSYYYGFDVWGQGTTVTVSS
chain 2: DIQMTQSPSSLSASVGDRVTITCQASQDISNYLNWYQQKPGKAPKLLIYDASNLETGVPSRFSGSGSGTDFTFTISSLQPEDIATYYCQQADSFPVTFGGGTKVEIK
B9: unnamed (protein)
chain 1: EVQLLESGGGLVQPGGSLRLSCAASGFTFSQYGMDWVRQAPGKGLEWVSGIGPSGGSTVYADSVKGRFTISRDNSKNTLYLQMNSLRAEDTAVYYCTRDGPYYYYAFDYWGQGTTVTVSS
chain 2: DIQMTQSPSSLSASVGDRVTITCQASQDISNYLNWYQQKPGKAPKLLIYDASNLETGVPSRFSGSGSGTDFTFTISSLQPEDIATYYCQQADSFPVTFGGGTKVEIK
B10: unnamed (protein)
chain 1: EVQLLESGGGLVQPGGSLRLSCAASGFTFSQYGMDWVRQAPGKGLEWVSGIGPSGGSTVYADSVKGRFTISRDNSKNTLYLQMNSLRAEDTAVYYCTRDGPAWYYAFDYWGQGTTVTVSS
chain 2: DIQMTQSPSSLSASVGDRVTITCQASQDISNYLNWYQQKPGKAPKLLIYDASNLETGVPSRFSGSGSGTDFTFTISSLQPEDIATYYCQQADSFPVTFGGGTKVEIK
B11: unnamed (protein)
chain 1: EVQLLESGGGLVQPGGSLRLSCAASGFTFSQYGMDWVRQAPGKGLEWVSGIGPSGGSTVYADSVKGRFTISRDNSKNTLYLQMNSLRAEDTAVYYCTRDGPAWYYAFDVWGQGTTVTVSS
chain 2: DIQMTQSPSSLSASVGDRVTITCQASQDISNYLNWYQQKPGKAPKLLIYDASNLETGVPSRFSGSGSGTDFTFTISSLQPEDIATYYCQQADSFPVTFGGGTKVEIK
B12: unnamed (protein)
chain 1: EVQLLESGGGLVQPGGSLRLSCAASGFTFSQYGMDWVRQAPGKGLEWVSGIGPSGGSTVYADSVKGRFTISRDNSKNTLYLQMNSLRAEDTAVYYCARDGPSWYYAFDVWGQGTTVTVSS
chain 2: DIQMTQSPSSLSASVGDRVTITCQASQDISNYLNWYQQKPGKAPKLLIYDASNLETGVPSRFSGSGSGTDFTFTISSLQPEDIATYYCQQADSFPVTFGGGTKVEIK
B13: unnamed (protein)
chain 1: EVQLLESGGGLVQPGGSLRLSCAASGFTFSQYGMDWVRQAPGKGLEWVSGIGPSGGSTVYADSVKGRFTISRDNSKNTLYLQMNSLRAEDTAVYYCTRGGPAYYYAFDYWGQGTTVTVSS
chain 2: DIQMTQSPSSLSASVGDRVTITCQASQDISNYLNWYQQKPGKAPKLLIYDASNLETGVPSRFSGSGSGTDFTFTISSLQPEDIATYYCQQADSFPVTFGGGTKVEIK
B14: unnamed (protein)
chain 1: EVQLLESGGGLVQPGGSLRLSCAASGFTFSQYGMDWVRQAPGKGLEWVSGIGPSGGSTVYADSVKGRFTISRDNSKNTLYLQMNSLRAEDTAVYYCARGGPAYYYAFDIWGQGTTVTVSS
chain 2: DIQMTQSPSSLSASVGDRVTITCQASQDISNYLNWYQQKPGKAPKLLIYDASNLETGVPSRFSGSGSGTDFTFTISSLQPEDIATYYCQQADSFPVTFGGGTKVEIK
B15: unnamed (protein)
chain 1: EVQLLESGGGLVQPGGSLRLSCAASGFTFSQYGMDWVRQAPGKGLEWVSGIGPSGGSTVYADSVKGRFTISRDNSKNTLYLQMNSLRAEDTAVYYCTRGGPAYYYGFDYWGQGTTVTVSS
chain 2: DIQMTQSPSSLSASVGDRVTITCQASQDISNYLNWYQQKPGKAPKLLIYDASNLETGVPSRFSGSGSGTDFTFTISSLQPEDIATYYCQQADSFPVTFGGGTKVEIK
B16: unnamed (protein)
chain 1: EVQLLESGGGLVQPGGSLRLSCAASGFTFSQYGMDWVRQAPGKGLEWVSGIGPSGGSTVYADSVKGRFTISRDNSKNTLYLQMNSLRAEDTAVYYCTRDGGAYYYAFDVWGQGTTVTVSS
chain 2: DIQMTQSPSSLSASVGDRVTITCQASQDISNYLNWYQQKPGKAPKLLIYDASNLETGVPSRFSGSGSGTDFTFTISSLQPEDIATYYCQQADSFPVTFGGGTKVEIK
B17: unnamed (protein)
chain 1: EVQLLESGGGLVQPGGSLRLSCAASGFTFSQYGMDWVRQAPGKGLEWVSGIGPSGGSTVYADSVKGRFTISRDNSKNTLYLQMNSLRAEDTAVYYCARDGPSYYYAFDVWGQGTTVTVSS
chain 2: DIQMTQSPSSLSASVGDRVTITCQASQDISNYLNWYQQKPGKAPKLLIYDASNLETGVPSRFSGSGSGTDFTFTISSLQPEDIATYYCQQADSFPVTFGGGTKVEIK
B18: unnamed (protein)
chain 1: EVQLLESGGGLVQPGGSLRLSCAASGFTFSQYGMDWVRQAPGKGLEWVSGIGPSGGSTVYADSVKGRFTISRDNSKNTLYLQMNSLRAEDTAVYYCTRDGPAYYYAFDYWGQGTTVTVSS
chain 2: DIQMTQSPSSLSASVGDRVTITCQASQDISNYLNWYQQKPGKAPKLLIYDASNLETGVPSRFSGSGSGTDFTFTISSLQPEDIATYYCQQADSFPVTFGGGTKVEIK
B19: unnamed (protein)
chain 1: EVQLLESGGGLVQPGGSLRLSCAASGFTFSQYGMDWVRQAPGKGLEWVSGIGPSGGSTVYADSVKGRFTISRDNSKNTLYLQMNSLRAEDTAVYYCTRDGPAYYYAFDIWGQGTTVTVSS
chain 2: DIQMTQSPSSLSASVGDRVTITCQASQDISNYLNWYQQKPGKAPKLLIYDASNLETGVPSRFSGSGSGTDFTFTISSLQPEDIATYYCQQADSFPVTFGGGTKVEIK

19 molecules from the FLAb antibody collection (doi:10.1101/2023.12.08.570889) can be followed below.

In the experiment the target is FXI. The experiment in a line: Kd (SPR).
As usually defined, the Kd is the free concentration of one partner at which half of the binding sites on the other are occupied at equilibrium, for simple one-to-one binding. B1 returned a dissociation constant (Kd) of 270 nM.
Consider B2, for which the Kd came out at 106 nM.
Next, B3: 750 nM; B4: 79.8 nM; B5: 84 nM.
Next, B6: 175 nM.
The figure for B7 is 210 nM; for B8 it is 95.3 nM.
Molecule B9 returned a Kd of 68 nM.
Turning to B10, the dissociation constant Kd came to 78.2 nM.
The figure for B11 is 51.7 nM.
Next, B12: 59.9 nM; B13: 306 nM; B14: 430 nM.
Next, B15: 148 nM.
The molecule B16 showed a Kd of 135 nM.
The figure for B17 is 134 nM; for B18 it is 147 nM; for B19 it is 109 nM.
